# Results reported in patent US20160075771A1 (ZESTAGEN S A, published 2016).
# Target: surface HSP90 on MDAMB453 breast cancer cells (human, UniProt P07900 2-732)
# Experiment: cell-based or functional assay
row,Binder,"inhibition of wound closure, MDAMB453 in vitro wound healing assay, 200 µg/ml, 48 hours [%]"
1,"monoclonal antibody (mAb) 4C5 (antibody, V domains shown) VL: ELVMTQSPSSMYASLGERVTITCKASQDINSYLSWFQQKPGKSPKTLIYRANRLVDGVPSRFSGSGSGQDYSLTINSLEYEDMGIYYCLQYDEFPRLTFGAGTRLELKR",55.3
2,"human-mouse chimeric 4C5 antibody (antibody, V domains shown) VL: ELVMTQSPSSMYASLGERVTITCKASQDINSYLSWFQQKPGKSPKTLIYRANRLVDGVPSRFSGSGSGQDYSLTINSLEYEDMGIYYCLQYDEFPRLTFGAGTRLELKR",51.2
3,"recombinant 4C5 (antibody, V domains shown) VL: ELVMTQSPSSMYASLGERVTITCKASQDINSYLSWFQQKPGKSPKTLIYRANRLVDGVPSRFSGSGSGQDYSLTINSLEYEDMGIYYCLQYDEFPRLTFGAGTRLELKR",46.5
